Measured values published in PMC12501251 (Communications Biology, 2025).

How the values were obtained:
Assay in all cases: ELISA
[1] = target: N1 NA head domain (residue 82-469) from A/Brevig Mission/1/1918 (H1N1) (Influenza A virus A/Brevig …, UniProt Q9IGQ6)
[2] = target: N3 NA (head domain plus stalk region) from A/swine/Missouri/2124514/2006 (H2N3) (Influenza A virus …, UniProt A9YN63, strain)
[3] = target: N8 NA (head domain plus stalk region) from A/gyrfalcon/41088-6/2014 (H5N8) (Influenza A virus …, UniProt A0A0C4WVM3, strain)
[4] = target: T1, N2 NA head domain from A/Japan/305/1957 (H2N2) (Influenza A virus A/Japan/305/1957 …, strain)
T1 chain: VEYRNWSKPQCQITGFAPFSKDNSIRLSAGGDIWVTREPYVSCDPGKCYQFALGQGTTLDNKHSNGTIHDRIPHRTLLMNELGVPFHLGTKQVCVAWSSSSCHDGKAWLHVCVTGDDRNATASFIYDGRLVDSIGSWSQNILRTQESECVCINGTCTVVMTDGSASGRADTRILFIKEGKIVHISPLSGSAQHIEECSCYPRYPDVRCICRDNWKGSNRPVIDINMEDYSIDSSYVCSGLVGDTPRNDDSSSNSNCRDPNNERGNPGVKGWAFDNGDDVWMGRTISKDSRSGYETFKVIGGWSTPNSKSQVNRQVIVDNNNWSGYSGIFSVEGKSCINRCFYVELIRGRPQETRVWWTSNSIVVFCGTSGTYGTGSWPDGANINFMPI

Measured: binding result

Chain of N1 NA head domain (residue 82-469) from A/Brevig Mission/1/1918 (H1N1) (Q9IGQ6 82-469): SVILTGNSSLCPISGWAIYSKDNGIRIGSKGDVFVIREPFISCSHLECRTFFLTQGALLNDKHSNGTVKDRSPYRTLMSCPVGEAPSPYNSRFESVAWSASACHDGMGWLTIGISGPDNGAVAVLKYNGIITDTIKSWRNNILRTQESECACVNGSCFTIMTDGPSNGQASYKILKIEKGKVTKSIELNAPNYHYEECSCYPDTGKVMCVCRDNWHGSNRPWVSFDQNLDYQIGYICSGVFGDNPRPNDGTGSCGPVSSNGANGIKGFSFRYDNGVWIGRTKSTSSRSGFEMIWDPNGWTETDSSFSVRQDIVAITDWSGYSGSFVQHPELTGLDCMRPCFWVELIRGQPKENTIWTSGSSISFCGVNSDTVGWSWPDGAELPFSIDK

B1: 1122A11 (human IgG1 mAb) (antibody, V domains shown)
VH: QVQLVQSGAEVSKPGASVKVSCKASGYSFTSQSLGWVRQAPGQGLEWMGIINPSGGITNYAHKFQGRVTMTRDTSTSTVYMELSSLRSEDTALYYCVRDLSHYNEVGHDRAYYYGMDIWGQGTTVTVSS
VL: SYELIQPPSVSVSPGQTASITCSGDKLGKKYTCWYQQKPGQSPVLVIYQDNKRPSGIPERFSGSNSGNTATLTISGTQAMDEADYYCQAWDSSAVVFGGGTKLTVL
binds: all assays above
